According to patent publication US20190144566A1 (ORUM THERAPEUTICS, published 2019):

Molecular target: T1, mCherry (red fluorescence) H-RAS G12V (UniProt P01112 1-186)
T1 construct: Expressed inside NIH3T3 cells, located at the inner cell membrane; also called intracellular H-RAS G12V mutants; not shown: mCherry red fluorescent protein
Assay: confocal co-localisation in NIH3T3 cells expressing mCherry H-RAS G12V

B1: cytosol-penetrating antibody (cytotransmab) TMab4 (antibody, V domains shown)
VH: EVQLVESGGGLVQPGGSLRLSCAASGYTFTSYVMHWVRQAPGKGLEWVSAINPYNDGNYYADSVKGRFTISRDNSRKTLYLQMNSLRAEDTAVYYCARGAYKRGYAMDYWGQGTTVTVSS
VL: DLVMTQSPSSLSASVGDRVTITCKSSQSLFNSRTRKNYLAWYQQKPGKAPKLLIYWASTRESGVPSRFSGSGSGTDFTLTISSLQPEDFATYYCQQYYYHMYTFGQGTKVEIKR
notes: Intact IgG-format monoclonal antibody with CH1-hinge-CH2-CH3 and CL; Used as negative control in the RAS assays; also called CT
binding result: no binding (tested: 2 µM)
